Reference: the supplement of paper PMC12042874
± gives the uncertainty stated by the source.

assay: amyloid nucleation score (Sup35N fusion, yeast selection) (log enrichment); library NNK2; higher = more nucleation; inactive = no reads after selection
Summary of the method: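 DiMSum was used to calculate nucleation scores as log enrichment of output over input reads, centred on the mode score of non-aggregating sequences. Sequences with fewer than 100 input reads were not scored. Input and output came from Illumina sequencing of plasmid inserts in psi-negative yeast expressing peptides of 20 random codons fused to Sup35N, induced 24 hours with 100 μM copper sulfate and then grown 7 days at 30°C on medium lacking adenine and uracil.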

In order of rising amyloid nucleation score:
1. SKNLE  -2.09 ± 0.48
2. LSRFNFSNVLLRRNMSARA  -1.78 ± 0.62
3. RLNLGYYKEAVYN  -1.65 ± 0.63
4. TSRKGNSSHL  -1.54 ± 0.75
5. WMLRGRYFGTE  -1.47 ± 0.44
6. CSFDVYNSDCTTHDDIINNF  -1.43 ± 1
7. SEQWSQIYGAFSV  -1.32 ± 0.63
8. LQGRYNSTYYMDVAGLVVSE  -1.23 ± 0.76
9. GYRNPLLLILLDRVKFSCSR  -1.19 ± 1
10. MDFVNTIATCNKKREVRFVI  -1.1 ± 0.36
11. RSLDIARAY  -1.06 ± 0.4
12. DCWWYRLDSMYDLTYLGIGR  -1.03 ± 0.63
13. PMRMKFCQWLFHPP  -0.983 ± 0.61
14. LILMAENL  -0.92 ± 1.1
15. LLYTDYMMIYCIAFMLSDDY  -0.916 ± 1.1
16. VIYVPLGKNLKIFSKHSFFG  -0.906 ± 0.76
17. FYLMPDCLWGGKSSWSFLHL  -0.873 ± 0.5
18. KSRIDSESGGGQSFS  -0.805 ± 0.63
19. YGPGFILSQMMNWLWYSCSS  -0.765 ± 0.78
20. ITDVFSMWIF  -0.73 ± 0.5
21. SGEARQH  -0.691 ± 0.49
22. FNSCDAWYCMNSQVSRTTYL  -0.624 ± 0.41
23. TKMYVD  -0.573 ± 1.1
24. HNNFYPA  -0.552 ± 0.35
25. VNRAR  -0.545 ± 0.63
26. EEWSYVDSEPSIRFSRIQDV  -0.516 ± 0.42
27. WRYYAGWYESWSTAGQTCTF  -0.487 ± 1.1
28. DGSNIFLLV  -0.482 ± 0.56
29. ARSRFSYKMRYPACGVISSR  -0.472 ± 0.79
30. NILMY  -0.46 ± 1
31. KYVGSWITTDVSFECTVI  -0.46 ± 1
32. SLWYFCRPIGGI  -0.391 ± 0.29
33. NNSPVSPDGCLLGSSVQYWY  -0.375 ± 1.1
34. AFDGGIFFSLMSFMLVWMGS  -0.345 ± 0.56
35. SRLMCNNVTSLLVFVFIGHK  -0.337 ± 0.74
36. ILWCFRSVMA  -0.327 ± 0.28
37. TPYGFSFRTRYMKQADLALS  -0.315 ± 0.33
38. TLHCRSILGELLYVDMVKDD  -0.297 ± 0.46
39. KRMKRLVCGTRVDMYRGSLW  -0.222 ± 0.33
40. LIVKLANTGRSQHHIRSWLS  -0.212 ± 0.38
41. YGLAFTEDATFFKVCTY  -0.211 ± 0.8
42. LLPATWYLVLF  -0.204 ± 0.49
43. RCGCHDCVFLR  -0.202 ± 0.46
44. WSVGVESSKDQSLDQFGSD  -0.184 ± 1.1
45. EWPMPWMFHRCSG  -0.138 ± 0.37
46. LLTMVHTSSIRKESGF  -0.118 ± 0.5
47. INSSRSFVYDFNTWNFQDVR  -0.089 ± 0.79
48. YLRTCI  -0.084 ± 0.49
49. MSGAFVYAWCLRTGKCTQAG  -0.082 ± 0.27
50. NITDDRMSSWIRFVILVSTV  -0.074 ± 0.56
51. WDIFICLVL  -0.063 ± 0.74
52. NFIFDFVV  -0.03 ± 0.21
53. FRALKMISDPSRHSVLL  -0.02 ± 0.34
54. SYTGS  -0.019 ± 0.34
55. IIVIRD  0.005 ± 0.36
56. HCCKSVRLESIRMRCGACYL  0.007 ± 0.56
57. IRRTDREQ  0.053 ± 0.24
58. EFLRRD  0.055 ± 0.26
59. GVYLGSPSYVDLSVALFSIV  0.073 ± 0.29
60. KVKSWCTGLLGA  0.075 ± 0.76
61. HRHFCSLDGA  0.076 ± 0.29
62. RLLLEDASIVGLIITYYLMF  0.085 ± 0.8
63. FMMTRKGIFELHFISRE  0.097 ± 1.1
64. GLSAHYA  0.113 ± 1.1
65. RSSLMYARIHCGEVRRNFLC  0.177 ± 0.62
66. TSVNALFRWPRLFSYRREPV  0.202 ± 0.79
67. YYINVDQESGSWMRTSVKGA  0.207 ± 0.41
68. KRWCRGSE  0.229 ± 0.24
69. IPPSLCARKLRCYYVGAEG  0.249 ± 0.64
70. PNSSNPNPMRLVFRSMSFRL  0.269 ± 0.64
71. TLDIALKGG  0.271 ± 0.25
72. MGSGSIFT  0.287 ± 0.45
73. DFGREVVVIPLSEV  0.323 ± 0.53
74. TYVAFGGWLLEMPMLPTWSQ  0.332 ± 0.37
75. EFQGVS  0.343 ± 0.64
76. ITKAASTWDLLFFVRQVCRT  0.353 ± 0.61
77. ISGVLLWIRRFKHPICEEAW  0.371 ± 0.56
78. YHVRIGSGRAVSLHV  0.382 ± 0.5
79. ATKRGVHSQLCDCLRCMEFS  0.386 ± 0.32
80. RALVRLHSDYMLWRFMVADS  0.399 ± 0.42
81. VKLIGKITELGKNRMLMLWT  0.429 ± 0.28
82. ELCTKAINVMN  0.433 ± 0.48
83. ALRDFS  0.465 ± 0.8
84. ELLGSLCRNRVGTWTICNMS  0.52 ± 0.34
85. LSAVVTSFKVTN  0.523 ± 0.64
86. FSSQFHLRAYNTIRCSLDDF  0.534 ± 0.8
87. CIKVCALGCVDGVLVWERRW  0.538 ± 0.27
88. GCYHVMVRNNKTGVLVMRSA  0.545 ± 0.57
89. CFGYWHSVRARCLRKVGHRT  0.546 ± 0.38
90. PWYLRVSEHHKPWEPENWG  0.552 ± 0.32
91. LLLRGQLQVMPGDPARRMYV  0.556 ± 0.29
92. CVAVDDD  0.624 ± 0.46
93. LGYFTLSFS  0.627 ± 0.81
94. WVYFHSNNSDLLDNEIKLTR  0.652 ± 0.66
95. RSDMH  0.673 ± 0.44
96. LLCMVIMVGFYSRSAGNTDQ  0.696 ± 0.6
97. ASLFFM  0.707 ± 0.34
98. LYRLGFEAHRVYKQLKIIGG  0.764 ± 0.4
99. TPDGIRLSVAHCS  0.764 ± 0.24
100. VLSMDLQVIRSWKICSVSRK  0.799 ± 0.17
101. NGNVVADWI  0.809 ± 0.27
102. FGFNCMGWYRDCAVTSTWGA  0.809 ± 0.31
103. ISMTTVDPQMEEFGLRHVGV  0.831 ± 0.31
104. VLEITLCG  0.834 ± 0.46
105. ALENNIDPLGELASVPGCSG  0.843 ± 0.27
106. ALLDHFPDEGHFKATFISSI  0.85 ± 0.58
107. GSCRDLDLLLERHWRVVSNL  0.903 ± 0.57
108. RSDVSLVYNLWALWWAR  0.906 ± 0.52
109. VFSGGSPWWVANMRGAPKLL  0.94 ± 0.2
110. FSKSVVGSPERKHVDT  0.948 ± 0.34
111. RFGSADVSITRVDFSS  0.961 ± 0.15
112. KLWSSARFIWLSNHHLHGDC  1.01 ± 0.57
113. GPCDQSWAT  1.06 ± 0.19
114. MAVYTRVVTLCRGKPFS  1.06 ± 0.35
115. LSMSWC  1.1 ± 0.44
116. PDFLAVGHVSTFVHFTVETG  1.16 ± 0.38
117. ALLWCQMWERDRSEFPIGGF  1.2 ± 0.45
118. QCVKLNTNVLCTVSDYNARG  1.2 ± 0.11
119. RMFWLIVQLGGSFDRLYGFR  1.21 ± 0.45
120. SIFRLDDEGDPVMREPLM  1.22 ± 0.59
121. HISVISTNEFTRIRASAAHA  1.38 ± 0.67
122. NWMHC  1.39 ± 0.42
123. HVNRGYSLVTPRMEVDWQLS  1.42 ± 0.15
124. WCGFHGKATNHFMWIV  1.45 ± 0.27
125. DGISFSAKSSSYSDASLRMR  1.62 ± 0.097
126. MGVKPTPCRVRPPRRPGASA  1.68 ± 0.27
127. SPGIITCGYKLLDG  1.69 ± 0.27
128. LYNRLACL  1.86 ± 0.084
129. CWCSLRRFTMLCNMRMNWDN  1.91 ± 0.086
130. ELLGVQFRSRKYAATQNQWP  2.03 ± 0.19
131. QYKIVVELYMLYNISKNVEG  2.14 ± 0.16
132. DAAEISGLCLYDFLTGDLEQ  2.27 ± 0.12
133. FSGRKPSIVLHHSSECQP  2.38 ± 0.2
134. ALFFRTKTKHWVSCRFLMS  2.86 ± 0.078
135. VYSHILDYFACISYAITLVD  2.91 ± 0.13
136. STTWNSLELTTDNAAGAAII  2.95 ± 0.09
137. CMSIHCVTTSRVLKFNSKWY  3.11 ± 0.15
138. SSWAGVMYIVHNTKVHSYTI  3.19 ± 0.064
139. IFMRVHLSMIVELKTHPDI  3.2 ± 0.056
140. GTTDTCSAV  3.2 ± 0.093
141. FPFKCTSQDSFFFNFKWSRR  3.25 ± 0.17
142. WYVYSQ  3.25 ± 0.052
143. VKIYVFSFFMEL  3.7 ± 0.12
144. LLALTFSTETQGRHTKCHSL  4.07 ± 0.094
145. KFKVHQMQDVLSWVGYHDGS  4.13 ± 0.044
146. RLWCLRSTNEMAVSCYRSWD  4.47 ± 0.049
147. NNSWQINIYNGVTRLIRVRA  4.7 ± 0.039
148. NFNCYFS  4.888 ± 0.037
149. GGFSLMIFVCAGSHLG  5.26 ± 0.07
150. YLLLNYQACTMLDWNWVWVW  5.31 ± 0.071
151. HLMLFDMTASLLHSHNVSRP  5.63 ± 0.058
152. VMRLFIGAGIGRAEL  5.63 ± 0.059
153. QFSLSFSDFCKSLW  6.287 ± 0.03
154. CISVVFVRHNGNFVSFNELV  6.412 ± 0.05
155. VYSPAIFTNVFSYVSCEEER  6.56 ± 0.072
156. IKFTLHCYDCVVFNC  6.937 ± 0.056
157. QVMMIWCIWDY  6.949 ± 0.042
158. NVKICFCSVMSSTCRYNRT  7.878 ± 0.064
159. ILLCCPVLFPINMKGSVCDK  8.463 ± 0.044
160. SVFVNCNHWYIYSPWPSKRN  8.715 ± 0.047
161. WCPLWITCMCLCSGLST  8.742 ± 0.036
162. NNYATCNVHCMFMMI  10.18 ± 0.05

In the case of KATDSRYRFFMILMFYMTIY, the amyloid nucleation score is reported as “inactive”.
With HIIPEYRVFLLLFHDDGAGF the amyloid nucleation score was “inactive”.
In the case of SIWLFYHILVFVLMPFAVAF, the amyloid nucleation score is reported as “inactive”.
With IVYKGFLREN the amyloid nucleation score was “inactive”.
In the case of VGYLALQFLVRCMY, the amyloid nucleation score is reported as “inactive”.
With KKSYFTSLTLLFMTPFSLSY the amyloid nucleation score was “inactive”.
For RRIKPIVLPTVCFYYVSITS, the amyloid nucleation score was “inactive”.
In the case of SSPGSCIMSENWVNSSWRFT, the amyloid nucleation score is reported as “inactive”.
In the case of LNLNR, the amyloid nucleation score is reported as “inactive”.
For WLGYFK, the amyloid nucleation score was “inactive”.
With YRRGRLSMRSVWTKGCKERM the amyloid nucleation score was “inactive”.
With YSRVILFHNGQMGVVMVPRW the amyloid nucleation score was “inactive”.
For IKLYCELCYFSNFWKIFTLR, the amyloid nucleation score was “inactive”.
